Assay results: US20110135634A1, “METHODS OF INHIBITING INFECTION BY DIVERSE SUBTYPES OF DRUG-RESISTANT HIV-1” (priority 2007, published 2011)

What was measured:
[1] = Phase 1b clinical trial: safety, PK, immunogenicity, tropism, susceptibility; type: in vivo, human; conditions: HIV-infected subjects
Excerpt: All patients were screened prior to the study for the presence of virus that utilizes only CCR5 as the entry coreceptor, i.e., CCR5-tropic virus.

[2] = target: T1, CCR5 on CEM.NKR-CCR5 cells (Homo sapiens, UniProt P51681); assay: Competition binding: inhibition of 3H-UK-427,857 binding; conditions: read-out: EC50, inhibition of 3H-UK-427,857 binding; 2 nM 3H-UK-427,857, CEM.NKR-CCR5 cells
T1 construct: host or cells: CEM.NKR-CCR5 (transduced human T cell leukemia line)
Excerpt: The cells were washed in PBSA and lysed with 0.5N HCl prior to scintillation counting using a Wallac 1410 instrument.

[3] = human, in vivo
Protocol: Individuals were treated in sequential, dose-rising cohorts of 5 subjects (4 active and 1 placebo) each and evaluated for up to 120 days post-treatment. […] Safety assessments consisted of monitoring the following: vital signs (blood pressure, pulse, temperature, etc; hematology (hemoglobin, hematocrit, leukocytes, platelets, etc.); serum chemistries (AST/ALT, alkaline phosphatase, BUN, creatinine, etc.); urinalysis (pH, specific gravity, protein, glucose, leukocytes, etc.); and ECGs (12-lead).
Sera were diluted as appropriate and combined with L1.2-CCR5 cells, which are mouse pre-B lymphoma cells engineered to stably express human CCR5. […] Following incubation with test samples, cells were washed and combined with a FITC-labeled sheep antibody against human IgG4 (The Binding Site Limited, Cat. #AF009). Cells were washed again and analyzed by flow cytometry.
Serum was collected post-treatment, cryopreserved, and analyzed for PRO 140 levels. Peak serum concentrations ranged to […] at 0.1 mg/kg and […] at 0.5 mg/kg.

[4] = tested on: reporter viruses pseudotyped with HIV-1JR-FL envelope (U87-CD4-CCR5 cells); assay: microbe, parasite or virus in culture; type: cell-based
[5] = tested on: CCR5-tropic envelope-complemented luciferase-expressing HIV-1 reporter viruses; assay: PhenoSense HIV Entry Assay on U87-CD4/CCR5 cells; type: cell-based; parameters: key to Mean FC / FC: fold change in drug susceptibility vs DUAL (92HT594) reference envelope
Excerpt: Of these, 10 isolates were derived from viruses with high-level resistance to protease (PR) and/or reverse transcriptase (RT) inhibitors. Four additional isolates incorporated the major enfuvirtide-conferring mutations in an HIV-1JR-CSF envelope background. […] EC50 values for test isolates were divided by the EC50 for a well-characterized reference virus (HIV-192HT594) to yield fold-change (FC) values.
A PhenoSense™ HIV Entry assay (Whitcomb et al, Antimicrobial Agents and Chemotherapy, 51:566, 2007) has been developed by modifying the PhenoSense HIV assay and is illustrated schematically in FIGS. 21 and 22. The assay uses nucleic acid amplification (RT-PCR) to derive HIV envelope sequences (gp160) from HIV(+) patient plasma samples or other sources. Amplified envelope sequences were incorporated into a proprietary expression vector (pCXAS) using conventional cloning methods. Envelope expression vectors were prepared as large pools of sequences (>200) in order to assure that the diversity of sequences accurately represents the diversity of viral quasispecies in the specimen at the time of sample collection. Recombinant HIV-1 stocks expressing virus envelope proteins were prepared by co-transfecting HEK293 cells with a HIV-1 genomic viral vector and an appropriate envelope expression vector. The HIV-1 genomic vector is replication defective and contains a luciferase expression cassette within a deleted region of the HIV envelope gene. Following transfection, recombinant virus particles were harvested and used to inoculate two U87 cell lines expressing CD4 and the CCR5 or CXCR4 co-receptor (U87-CD4/CCR5 and U87-CD4/CXCR4 cells, respectively). […] Drug susceptibility was measured by comparing the amount of luciferase activity produced in the presence of entry inhibitors to the amount of luciferase activity produced in absence of entry inhibitors. Entry inhibitor activity was evaluated at ten serial drug concentrations. Data were analyzed by plotting percent inhibition of luciferase activity vs. log10 drug concentration.
The 31 viruses used in this study were CCR5-tropic and were selected from Monogram Biosciences' Specimen Library. The panel included four of each subtypes A, B, C, D, F, and G viruses and three subtype J virus (Table 17). Of the 31 viruses examined, 17 were wildtype (WT), 10 were resistant to protease (PR) and/or reverse transcriptase (RT) inhibitors and 4 were enfuvirtide-resistant site-directed mutants (SDMs). The enfuvirtide-resistant viruses included envelopes with amino acid substitutions at positions 36-38 (GIV motif) and 43 within heptad repeat 1 (HR-1) and were introduced by site-directed mutagenesis into gp41 transmembrane (TM) sequence of the JRCSF envelope, as shown in Table 16.
DUAL (92HT594) is an envelope expression vector derived from a drug-naive reference virus that can efficiently infect cells expressing both the CD4 receptor and the CCR5 or CXCR4 co-receptor molecules on the cell surface. The DUAL envelope control was used to determine the fold changes in drug susceptibility of samples evaluated on U87-CD4/CCR5 cells. The DUAL control was also tested in each assay batch to evaluate and monitor assay performance over time.
JRCSF is an envelope expression vector derived from a drug-naive reference virus that can efficiently infect cells expressing both the CD4 receptor and the CCR5 co-receptor molecules on the cell surface.
Susceptibility data were analyzed by plotting percent inhibition of luciferase activity vs. log10 drug concentration.

[6] = tested on: primary R5 HIV-1 isolates; assay: Whole virus replication (neutralization) assay; type: cell-based; conditions: a variety of primary R5 strains (FIG. 1)
Protocol: Humanized PRO140 is potently antiviral. […] The data reflect the median values from 8 or more independent assays. The genetic subtypes of the viruses are indicated in parentheses.
Stimulated PBMCs are seeded into wells of 96-well flat bottom plates at a density of 1.4×10^5 cells/well. Virus is diluted to 2,000 TCID50/ml and mixed with serial 0.5 log10 dilutions of compound for 1 h at 37° C. prior to addition to the cell plates. The final amount of virus added per well is 100 TCID50. The final DMSO concentration in the assay is always 0.5% whenever small molecule inhibitors are being tested. Plates are incubated at 37° C. for 5 days, at which time an aliquot of supernatant is removed for p24 antigen ELISA.
The percent inhibition is derived as follows [1−(p24 levels in the presence of drug/p24 levels in the absence of drug)]×100.

[7] = JRFL, labelled 1st inhibitor with 2nd inhibitor PRO 140 (equimolar; 1:10 PRO 140 to nevirapine or zidovudine)

T1 sequence (P51681 whole entry): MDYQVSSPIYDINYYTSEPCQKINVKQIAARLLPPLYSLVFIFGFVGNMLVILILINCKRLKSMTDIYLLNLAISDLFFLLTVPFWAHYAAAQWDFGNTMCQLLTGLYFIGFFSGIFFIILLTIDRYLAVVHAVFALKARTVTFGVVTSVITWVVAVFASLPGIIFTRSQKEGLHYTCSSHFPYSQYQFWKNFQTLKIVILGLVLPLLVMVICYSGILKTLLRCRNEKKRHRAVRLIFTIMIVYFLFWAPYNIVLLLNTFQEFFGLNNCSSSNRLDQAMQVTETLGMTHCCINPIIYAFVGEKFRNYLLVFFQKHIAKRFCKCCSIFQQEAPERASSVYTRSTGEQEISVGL

B1: PRO 140: humanized IgG4,κ anti-CCR5 mAb being developed for HIV-1 therapy (antibody, chains of the INN, looked up, V domains shown)
VH: EVQLVESGGGLVKPGGSLRLSCAASGYTFSNYWIGWVRQAPGKGLEWIGDIYPGGNYIRNNEKFKDKTTLSADTSKNTAYLQMNSLKTEDTAVYYCGSSFGSNYVFAWFTYWGQGTLVTVSS
VL: DIVMTQSPLSLPVTPGEPASISCRSSQRLLSSYGHTYLHWYLQKPGQSPQLLIYEVSNRFSGVPDRFSGSGSGTDFTLKISRVEAEDVGVYYCSQSTHVPLTFGQGTKVEIK
change in plasma RANTES (CCL5) chemokine levels [1]: No change | dose-limiting toxicity ([1]; 0.5-5.0 mg/kg): No dose-limiting toxicity | treatment related SAEs ([1]; 0.5-5.0 mg/kg): No treatment related SAEs | tolerability ([1]; all study groups): well-tolerated | EC50 [2]: 14 nM | terminal serum half-life [3]: 240 to 288 h | IC50 ([4]; HIV-1 envelope JRFL, 1st inhibitor alone, read-out: IC50): 2.2 nM | IC90 ([4]; HIV-1 envelope JRFL, 1st inhibitor alone, read-out: IC90): 28 nM | CI50 [4, 7]: 1.2 ± 0.32 | CI90 [4, 7]: 0.90 ± 0.15 | median IC50 ([5]; 27 viruses representing different genetic subtypes): 0.44 µg/mL | range of FC values ([5]; 31 test viruses, relative to HIV-1 92HT594): 0.28-4.1 | mean EC50 ([5]; all 31 test viruses): 0.50 ± 0.27 µg/mL | Mean FC ([5]; all 31 test viruses, relative to reference virus HIV-1 92HT594): 1.5±0.8 | FC ([5]; envelopes from PR/RT-resistant viruses): 1.4±1.0 | mean IC50 ([5]; four enfuvirtide-resistant SDMs): 0.82 µg/mL | IC50, Average ([5]; panel of 31 viruses): 0.5096 µg/mL | IC50, Max ([5]; panel of 31 viruses): 1.4329 µg/mL | IC50, Median ([5]; panel of 31 viruses): 0.4418 µg/mL | IC50, Min ([5]; panel of 31 viruses): 0.0955 µg/mL | Mean FC ([5]; subtype A): 1.0±0.4 | Mean FC ([5]; subtype B): 1.5±0.2 | Mean FC ([5]; subtype C): 0.94±0.5 | Mean FC ([5]; subtype D): 1.4±0.6 | Mean FC ([5]; subtype F): 1.5±0.7 | Mean FC ([5]; subtype G): 1.8±1.6 | Mean FC ([5]; subtype J): 1.2±0.4 | IC90 [6]: 3 to 4 µg/mL
